Experiment in all cases: BLI; biotinylated trimeric gp140 immobilised on streptavidin biosensors; Fabs 1-32 uM in solution; 30 C, 1,000 r.p.m.; kinetic buffer (1X PBS, 0.01% BSA, 0.02% Tween 20, 0.005% NaN3); association 4 min, dissociation 8 min; 1:1 binding model; mean of curves with R2 >= 0.95
(In general: Biolayer interferometry detects binding as a change in optical thickness at a sensor tip.)

Test [1] has as its target 426c.TM4ΔV1-3 soluble trimeric gp140 (426c S278R N460D N463D G471S ΔV1 V2 V3) (HIV-1 (clade C, 426c)).
Test [2] addresses 426c.TM5ΔV1-3 soluble trimeric gp140 (426c N276D S278R N460D N463D G471S ΔV1 V2 V3) (HIV-1 (clade C, 426c)).
Test [3] addresses 426c.TM1 soluble trimeric gp140 (426c N276D N460D N463D) (HIV-1 (clade C, 426c)).
Test [4] concerns the target 426c.TM4 soluble trimeric gp140 (426c S278R N460D N463D G471S) (HIV-1 (clade C, 426c)).
In test [5] the target is 426c.TM3 soluble trimeric gp140 (426c S278R N460D N463D) (HIV-1 (clade C, 426c)).
For test [6], the target named is 426c.TM1ΔV1-3 soluble trimeric gp140 (426c N276D N460D N463D ΔV1 V2 V3) (HIV-1 (clade C, 426c)).
For test [7], the target named is 426c.TM2 soluble trimeric gp140 (426c S278A N460D N463D) (HIV-1 (clade C, 426c)).
Test [8] addresses 426c.TM5 soluble trimeric gp140 (426c N276D S278R N460D N463D G471S) (HIV-1 (clade C, 426c)).

For orientation: koff means the first-order rate constant of dissociation. In general, kon refers to a measure of how fast the partners come together.

Turning to germline 3BNC60 Fab, in test [1], the Ka stood at 3490 M⁻¹, the dissociation rate constant (koff) was 0.398 s⁻¹ and the kon was 1410 M⁻¹ s⁻¹. In test [2], this substance had a Ka of 2180 M⁻¹, an off-rate (koff) of 0.477 s⁻¹ and an association rate constant (kon) of 1040 M⁻¹ s⁻¹.
As to germline VRC-PG19 Fab, the Ka in test [1] amounted to 8.9e+06 M⁻¹; in test [3], 287000 M⁻¹; in test [4], 5.45e+06 M⁻¹; in test [5] it was 2.24e+06 M⁻¹; in test [2], 8.93e+06 M⁻¹; in test [6], 353000 M⁻¹. For the same substance, the Ka in test [7] came out at 416000 M⁻¹; in test [8] it was 5.22e+06 M⁻¹. The koff amounted to 0.0027 s⁻¹ in test [1]; 0.14 s⁻¹ in test [3]; 0.018 s⁻¹ in test [4]; 0.0442 s⁻¹ in test [5]; 0.00216 s⁻¹ in test [2]; 0.0315 s⁻¹ in test [6]. Further, the koff in test [7] was 0.172 s⁻¹; in test [8], 0.016 s⁻¹. In addition, the on-rate (kon) in test [1] amounted to 24100 M⁻¹ s⁻¹; in test [3] it was 40000 M⁻¹ s⁻¹; in test [4], 98000 M⁻¹ s⁻¹; in test [5], 98900 M⁻¹ s⁻¹; in test [2], 19300 M⁻¹ s⁻¹; in test [6], 11100 M⁻¹ s⁻¹. Besides, the on-rate constant (kon) in test [7] was 71500 M⁻¹ s⁻¹; in test [8] it was 83800 M⁻¹ s⁻¹.
Turning to germline VRC-PG20 Fab, the Ka in test [1] came to 3.84e+07 M⁻¹; in test [3] it was 1.4e+07 M⁻¹; in test [4], 2.28e+07 M⁻¹; in test [5], 1.2e+07 M⁻¹; in test [2], 2.45e+08 M⁻¹; in test [6], 1.24e+07 M⁻¹. The Ka turned out to be 3.88e+06 M⁻¹ in test [7] and 1.78e+08 M⁻¹ in test [8]. For the same substance, the koff in test [1] was 0.000511 s⁻¹; in test [3], 0.00343 s⁻¹; in test [4] it was 0.00257 s⁻¹; in test [5], 0.00487 s⁻¹; in test [2] it was 0.000149 s⁻¹; in test [6] it was 0.00104 s⁻¹. Besides, the koff in test [7] is 0.0129 s⁻¹; in test [8] it was 0.000553 s⁻¹. The kon came to 24500 M⁻¹ s⁻¹ in test [1]; 49700 M⁻¹ s⁻¹ in test [3]; 61100 M⁻¹ s⁻¹ in test [4]; 60500 M⁻¹ s⁻¹ in test [5]; 41200 M⁻¹ s⁻¹ in test [2]; 13500 M⁻¹ s⁻¹ in test [6]. Also, the values for the kon in test [7] and in test [8] were 50900 M⁻¹ s⁻¹ and 112000 M⁻¹ s⁻¹, respectively.
germline VRC01 Fab: the Ka in test [1] turned out to be 1.47e+06 M⁻¹; in test [3], 1.31e+06 M⁻¹; in test [4] it was 1.08e+06 M⁻¹; in test [5], 562000 M⁻¹; in test [2], 1.06e+07 M⁻¹; in test [6], 3.09e+06 M⁻¹. The Ka is 628000 M⁻¹ in test [7] and 1.14e+07 M⁻¹ in test [8]. Besides, the koff in test [1] worked out at 0.00426 s⁻¹; in test [3], 0.0113 s⁻¹; in test [4], 0.0264 s⁻¹; in test [5], 0.064 s⁻¹; in test [2], 0.00065 s⁻¹; in test [6] it was 0.00157 s⁻¹. The koff in test [7] was determined as 0.0579 s⁻¹; in test [8], 0.00225 s⁻¹. Moreover, the kon came out at 6250 M⁻¹ s⁻¹ in test [1]; 14800 M⁻¹ s⁻¹ in test [3]; 28700 M⁻¹ s⁻¹ in test [4]; 36000 M⁻¹ s⁻¹ in test [5]; 6860 M⁻¹ s⁻¹ in test [2]; 4840 M⁻¹ s⁻¹ in test [6]. Besides, the kon came to 36300 M⁻¹ s⁻¹ in test [7] and 25600 M⁻¹ s⁻¹ in test [8].
For germline VRC-CH31 Fab, in test [2], the Ka came out at 8950 M⁻¹, the koff was found to be 0.24 s⁻¹ and the on-rate (kon) was 2400 M⁻¹ s⁻¹.
Regarding germline 12A21 Fab, the Ka in test [1] was 311000 M⁻¹; in test [4], 334000 M⁻¹; in test [5], 174000 M⁻¹; in test [2], 30800 M⁻¹; in test [7], 201000 M⁻¹; in test [8], 38500 M⁻¹. For the same substance, the koff turned out to be 0.0305 s⁻¹ in test [1]; 0.168 s⁻¹ in test [4]; 0.279 s⁻¹ in test [5]; 0.0515 s⁻¹ in test [2]; 0.274 s⁻¹ in test [7]; 0.403 s⁻¹ in test [8]. Besides, the kon in test [1] was determined as 9470 M⁻¹ s⁻¹; in test [4] it was 56200 M⁻¹ s⁻¹; in test [5], 48500 M⁻¹ s⁻¹; in test [2] it was 1590 M⁻¹ s⁻¹; in test [7], 55200 M⁻¹ s⁻¹; in test [8], 15500 M⁻¹ s⁻¹.

Values taken from publication PMC4770077.
